# B1: TPL0674_03_F05 (scFv, V domains shown)
# VH: EVQLVQSGAEVKKPGASVRVSCKASGYSITNYGISWVRQAPGQGLEWMGWINTYNGNTNYAQKFQGRVTMTRDTSISTAYMELSRLRSDDTAVYYCARDHPYRGMDVWGQGTLVTVSS
# VL: SYELTQDPAVSVALGQTVRITCQGDSLRSYYASWYQQKPGQAPVLVIYGKNNRPSGIPDRFSGSSSGNTASLTITGAQAEDEADYYCNSRDSSGNHPHVVFGGGTKLTVL
# B2: TPL0674_03_A04 (scFv, V domains shown)
# VH: QVQLVQSGSELKKPGASVKVSCKASGYTFTSYAMNWVRQAPGQGLEWMGWINTNTGNPTYAQGFTGRFVFSLDTSVSTAYLQISSLKAEDTAVYYCARDQGGDRHFGYWGQGTTVTVSS
# VL: QSELTQPPSASGTPGQRVTISCSGSSSNIGSHRVNWYQQLPGTAPKLLIYSNYHRPAGVPDRFSASKSGTSASLAISGLQSEDEADYYCAAWDDSLNGYVFGTGTQLTVL
# Target: consensus sphingomyelinase
# Assay: BLI; ForteBio Octet RED96, […]; 1:1 binding model, […]; triplicate
row,Binder,Kd
1,B1,60.2 nM
2,B2,31.5 nM

# Reference: PMC10868436
